Common to all, as to test: EMSA
(Mobility shift assays separate free from complexed probe on a gel.)

Data set [1] has as its target T1, GST-Arx 214-430 (Mus musculus, UniProt O35085 216-432).
Data set [2] deals with T2, Sumo-Arx (full-length) (Mus musculus, UniProt O35085 1-564).
For data set [3], the target named is T3, His-Arx 214-430 (Mus musculus, UniProt O35085 216-432).
Another data set deals with GST-Arx 286-430 (Mus musculus, UniProt O35085 288-432).
The target in data set [4] is T1, GST-Arx 214-430. The source holds these as a separate data set.
Data set [5] has as its target T3, His-Arx 214-430. The source holds these as a separate data set.
For data set [6], the target named is T2, Sumo-Arx (full-length). This is another data set of the same source.
For another data set, the target named is GST-Arx 286-430 L343Q (Mus musculus, UniProt O35085 288-432, L345Q).
Sequence of GST-Arx 286-430 L343Q (O35085 288-432 L345Q): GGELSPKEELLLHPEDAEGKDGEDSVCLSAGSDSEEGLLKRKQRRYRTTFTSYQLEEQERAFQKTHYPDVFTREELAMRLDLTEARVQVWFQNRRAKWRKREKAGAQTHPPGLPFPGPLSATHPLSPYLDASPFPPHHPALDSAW

T2 sequence (O35085 whole entry): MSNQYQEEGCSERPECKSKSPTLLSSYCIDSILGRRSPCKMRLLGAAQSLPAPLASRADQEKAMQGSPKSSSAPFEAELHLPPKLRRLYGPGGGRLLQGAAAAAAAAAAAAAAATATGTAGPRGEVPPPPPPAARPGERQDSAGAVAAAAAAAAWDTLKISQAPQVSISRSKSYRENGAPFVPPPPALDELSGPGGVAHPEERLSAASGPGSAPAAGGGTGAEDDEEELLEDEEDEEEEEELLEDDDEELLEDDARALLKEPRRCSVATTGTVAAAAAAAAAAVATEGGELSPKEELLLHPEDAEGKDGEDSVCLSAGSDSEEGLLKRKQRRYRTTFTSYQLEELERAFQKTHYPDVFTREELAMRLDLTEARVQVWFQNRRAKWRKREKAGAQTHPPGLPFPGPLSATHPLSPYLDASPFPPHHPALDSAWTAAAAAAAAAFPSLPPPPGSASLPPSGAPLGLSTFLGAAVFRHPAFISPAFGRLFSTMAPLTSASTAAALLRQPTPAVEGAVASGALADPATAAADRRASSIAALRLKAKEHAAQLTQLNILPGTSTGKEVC
Sequence of GST-Arx 286-430 (O35085 288-432): as the sequence (O35085 288-432 L345Q) above, with Q58L counted along it
T3 sequence (O35085 216-432): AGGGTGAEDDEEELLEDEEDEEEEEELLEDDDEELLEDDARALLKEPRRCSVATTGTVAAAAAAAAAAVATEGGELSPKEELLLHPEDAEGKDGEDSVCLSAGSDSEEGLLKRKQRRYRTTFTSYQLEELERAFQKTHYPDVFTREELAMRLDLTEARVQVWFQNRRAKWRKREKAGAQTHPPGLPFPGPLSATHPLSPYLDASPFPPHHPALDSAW
T1 sequence (O35085 216-432): as above

B1: N2 (dsDNA)
DNA 1: GTCTGGCAATTAATATATTGCATTTGC
DNA 2: GCAAATGCAATATATTAATTGCCAGAC
For B1, the binding result with GST-Arx 214-430 [1], in the data set with Sumo-Arx (full-length) [2] and with His-Arx 214-430 [3] was “no binding” in each case.

B2: N25 (dsDNA)
DNA 1: GTCTGGCCATTAATGATATCAATTAGC
DNA 2: GCTAATTGATATCATTAATGGCCAGAC
Regarding B2, in the data set with Sumo-Arx (full-length) [2], the binding result is “no binding”. Further, the results for the binding signal in the data set with GST-Arx 286-430, with GST-Arx 214-430 [4] and with His-Arx 214-430 [5] were 81.6 % of strongest probe for this protein, 33.6 % of strongest probe for this protein and 46 % of strongest probe for this protein, respectively.

B3: N9 (dsDNA)
DNA 1: GTCTGGCTCCTAATTAGTTCGATTAGC
DNA 2: GCTAATCGAACTAATTAGGAGCCAGAC
Turning to B3, the binding signal with GST-Arx 286-430 is 95 % of strongest probe for this protein; in the data set with GST-Arx 214-430 [4] it was 100 % of strongest probe for this protein; with Sumo-Arx (full-length) [6], 17 % of strongest probe for this protein; in the data set with His-Arx 214-430 [5], 97 % of strongest probe for this protein.

B4: N11 (dsDNA)
DNA 1: GTCTGGCAGTTAATTCGGCTTAGTAGC
DNA 2: GCTACTAAGCCGAATTAACTGCCAGAC
On to B4, for which the binding result in the data set with GST-Arx 214-430 [1] and with His-Arx 214-430 [3] was “no binding” each time. The binding signal in the data set with Sumo-Arx (full-length) [6] is 100 % of strongest probe for this protein.

B5: N30 (dsDNA)
DNA 1: GTCTGGCCTCTAATTACGCCTAATTGC
DNA 2: GCAATTAGGCGTAATTAGAGGCCAGAC
Take B5: the binding signal was 100 % of strongest probe for this protein with GST-Arx 286-430, 86 % of strongest probe for this protein in the data set with GST-Arx 214-430 [4], 38 % of strongest probe for this protein with Sumo-Arx (full-length) [6] and 100 % of strongest probe for this protein in the data set with His-Arx 214-430 [5].

B6: Lmo1 (dsDNA)
DNA 1: GTAATGAATTGATTTAATTAACAGGGGAGTCTGA
DNA 2: TCAGACTCCCCTGTTAATTAAATCAATTCATTAC
As for B6, in the data set with GST-Arx 286-430 L343Q, the binding result is given as “no binding”.

The record behind these values is publication PMC3279587.
